Laboratory results taken from paper PMC9352680, “A comprehensive thermodynamic model for RNA binding by the Saccharomyces cerevisiae Pumilio protein PUF4”.
Changes are numbered by the printed parent chain. In names and notes the source's numbering stands.

T1: PUF4 RNA-binding domain (Saccharomyces cerevisiae, UniProt P25339 537-888)
T1 sequence: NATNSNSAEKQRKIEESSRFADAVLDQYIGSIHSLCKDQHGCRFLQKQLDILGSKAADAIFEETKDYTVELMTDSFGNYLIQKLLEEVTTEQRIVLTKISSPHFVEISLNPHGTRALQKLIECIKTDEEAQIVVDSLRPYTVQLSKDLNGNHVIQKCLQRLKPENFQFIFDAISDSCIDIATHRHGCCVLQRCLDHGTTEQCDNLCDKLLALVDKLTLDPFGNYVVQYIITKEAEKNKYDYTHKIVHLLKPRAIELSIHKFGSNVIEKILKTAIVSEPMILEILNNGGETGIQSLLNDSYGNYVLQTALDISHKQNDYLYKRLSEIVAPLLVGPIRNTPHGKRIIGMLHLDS

B1: Id_ii_S2_P5E.3_K5.2_C5.2_[C-2T]_[T-1G]_H5.2_A5.1_F5.1_T5.2_[T11A] (ssRNA)
RNA: UUUGAUUAAUAUGAUAUCGUUCUUUCUUGUAUAUUAUUAAAUUCUUUCUCGAUAUCAUAUUAAUCUUU
B2: Id_ii_S2_P5E.3_K5.2_C5.2_[C-2T]_[T-1G]_H5.2_A5.1_F5.1_T5.2_[A12C] (ssRNA)
RNA: B1 RNA with A40U, A41C
B3: Id_ii_S2_P5E.3_K5.2_C5.2_[C-2T]_[T-1G]_H5.2_A5.1_F5.1_T5.2_[A12T] (ssRNA)
RNA: B1 RNA with A40U, A41U
B4: Id_ii_S2_P5E.3_K5.2_C5.2_[C-2T]_[T-1C]_H5.2_A5.1_F5.1_T5.2_[T11C]_[A12G] (ssRNA)
RNA: B1 RNA with G29C, A40C, A41G
B5: Id_ii_S2_P5E.3_K5.2_C5.2_[C-2T]_[T-1C]_H5.2_A5.1_F5.1_T5.2_[T11C]_[A12C] (ssRNA)
RNA: B1 RNA with G29C, A40C, A41C
B6: Id_ii_S2_P5E.3_K5.2_C5.2_[C-2T]_[T-1C]_H5.2_A5.1_F5.1_T5.2_[T11C]_[A12T] (ssRNA)
RNA: B1 RNA with G29C, A40C, A41U
B7: Id_ii_S2_P5E.3_K5.2_C5.2_[C-2T]_[T-1C]_H5.2_A5.1_F5.1_T5.2_[T11C] (ssRNA)
RNA: B1 RNA with G29C, A40C
B8: Id_ii_S2_P5E.3_K5.2_C5.2_[C-2T]_[T-1C]_H5.2_A5.1_F5.1_T5.2_[T11A]_[A12G] (ssRNA)
RNA: B1 RNA with G29C, A41G
B9: Id_ii_S2_P5E.3_K5.2_C5.2_[C-2T]_[T-1C]_H5.2_A5.1_F5.1_T5.2_[T11A]_[A12C] (ssRNA)
RNA: B1 RNA with G29C, A41C
B10: Id_ii_S2_P5E.3_K5.2_C5.2_[C-2T]_[T-1C]_H5.2_A5.1_F5.1_T5.2_[T11A]_[A12T] (ssRNA)
RNA: B1 RNA with G29C, A41U
B11: Id_ii_S2_P5E.3_K5.2_C5.2_[C-2T]_[T-1C]_H5.2_A5.1_F5.1_T5.2_[T11A] (ssRNA)
RNA: B1 RNA with G29C
B12: Id_ii_S2_P5E.3_K5.2_C5.2_[C-2T]_[T-1C]_H5.2_A5.1_F5.1_T5.2_[A12T] (ssRNA)
RNA: B1 RNA with G29C, A40U, A41U
B13: Id_ii_S2_P5E.3_K5.2_C5.2_[C-2T]_[T-1A]_H5.2_A5.1_F5.1_T5.2_[T11G]_[A12C] (ssRNA)
RNA: B1 RNA with G29A, A40G, A41C
B14: Id_ii_S2_P5E.3_K5.2_C5.2_[C-2T]_[T-1A]_H5.2_A5.1_F5.1_T5.2_[T11G]_[A12T] (ssRNA)
RNA: B1 RNA with G29A, A40G, A41U
B15: Id_ii_S2_P5E.3_K5.2_C5.2_[C-2T]_[T-1A]_H5.2_A5.1_F5.1_T5.2_[T11C]_[A12G] (ssRNA)
RNA: B1 RNA with G29A, A40C, A41G
B16: Id_ii_S2_P5E.3_K5.2_C5.2_[C-2T]_[T-1A]_H5.2_A5.1_F5.1_T5.2_[T11C]_[A12T] (ssRNA)
RNA: B1 RNA with G29A, A40C, A41U
B17: Id_ii_S2_P5E.3_K5.2_C5.2_[C-2T]_[T-1A]_H5.2_A5.1_F5.1_T5.2_[T11C] (ssRNA)
RNA: B1 RNA with G29A, A40C
B18: Id_ii_S2_P5E.3_K5.2_C5.2_[C-2T]_[T-1A]_H5.2_A5.1_F5.1_T5.2_[T11A]_[A12C] (ssRNA)
RNA: B1 RNA with G29A, A41C
B19: Id_ii_S2_P5E.3_K5.2_C5.2_[C-2T]_[T-1A]_H5.2_A5.1_F5.1_T5.2_[T11A]_[A12T] (ssRNA)
RNA: B1 RNA with G29A, A41U
B20: Id_ii_S2_P5E.3_K5.2_C5.2_[C-2T]_[T-1A]_H5.2_A5.1_F5.1_T5.2_[T11A] (ssRNA)
RNA: B1 RNA with G29A
B21: Id_ii_S2_P5E.3_K5.2_C5.2_[C-2T]_[T-1A]_H5.2_A5.1_F5.1_T5.2_[A12C] (ssRNA)
RNA: B1 RNA with G29A, A40U, A41C
B22: Id_ii_S2_P5E.3_K5.2_C5.2_[C-2T]_[T-1A]_H5.2_A5.1_F5.1_T5.2_[A12T] (ssRNA)
RNA: B1 RNA with G29A, A40U, A41U
B23: Id_ii_S2_P5E.3_K5.2_C5.2_[C-2T]_H5.2_A5.1_F5.1_T5.2_[T11G]_[A12C] (ssRNA)
RNA: B1 RNA with G29U, A40G, A41C
B24: Id_ii_S2_P5E.3_K5.2_C5.2_[C-2T]_H5.2_A5.1_F5.1_T5.2_[T11G]_[A12T] (ssRNA)
RNA: B1 RNA with G29U, A40G, A41U
B25: Id_ii_S2_P5E.3_K5.2_C5.2_[C-2T]_H5.2_A5.1_F5.1_T5.2_[T11C]_[A12G] (ssRNA)
RNA: B1 RNA with G29U, A40C, A41G
B26: Id_ii_S2_P5E.3_K5.2_C5.2_[C-2T]_H5.2_A5.1_F5.1_T5.2_[T11C]_[A12C] (ssRNA)
RNA: B1 RNA with G29U, A40C, A41C
B27: Id_ii_S2_P5E.3_K5.2_C5.2_[C-2T]_H5.2_A5.1_F5.1_T5.2_[T11C] (ssRNA)
RNA: B1 RNA with G29U, A40C
B28: Id_ii_S2_P5E.3_K5.2_C5.2_[C-2T]_H5.2_A5.1_F5.1_T5.2_[T11A]_[A12T] (ssRNA)
RNA: B1 RNA with G29U, A41U
B29: Id_ii_S2_P5E.3_K5.2_C5.2_[C-2T]_H5.2_A5.1_F5.1_T5.2_[A12C] (ssRNA)
RNA: B1 RNA with G29U, A40U, A41C
B30: Id_ii_S2_P5E.3_K5.2_C5.2_[C-2T]_H5.2_A5.1_F5.1_T5.2_[A12T] (ssRNA)
RNA: B1 RNA with G29U, A40U, A41U
B31: Id_ii_S2_P5E.3_K5.2_C5.2_[C-2A]_[T-1C]_H5.2_A5.1_F5.1_T5.2_[T11C]_[A12T] (ssRNA)
RNA: B1 RNA with U28A, G29C, A40C, A41U
B32: Id_ii_S2_P5E.3_K5.2_C5.2_[C-2A]_[T-1C]_H5.2_A5.1_F5.1_T5.2_[T11C] (ssRNA)
RNA: B1 RNA with U28A, G29C, A40C
B33: Id_ii_S2_P5E.3_K5.2_C5.2_[C-2A]_[T-1C]_H5.2_A5.1_F5.1_T5.2_[T11A]_[A12C] (ssRNA)
RNA: B1 RNA with U28A, G29C, A41C
B34: Id_ii_S2_P5E.3_K5.2_C5.2_[C-2A]_[T-1C]_H5.2_A5.1_F5.1_T5.2_[T11A]_[A12T] (ssRNA)
RNA: B1 RNA with U28A, G29C, A41U
B35: Id_ii_S2_P5E.3_K5.2_C5.2_[C-2A]_[T-1C]_H5.2_A5.1_F5.1_T5.2_[T11A] (ssRNA)
RNA: B1 RNA with U28A, G29C
B36: Id_ii_S2_P5E.3_K5.2_C5.2_[C-2A]_[T-1C]_H5.2_A5.1_F5.1_T5.2_[A12T] (ssRNA)
RNA: B1 RNA with U28A, G29C, A40U, A41U
B37: Id_ii_S2_P5E.3_K5.2_C5.2_[C-2A]_[T-1A]_H5.2_A5.1_F5.1_T5.2_[T11C]_[A12G] (ssRNA)
RNA: B1 RNA with U28A, G29A, A40C, A41G
B38: Id_ii_S2_P5E.3_K5.2_C5.2_[C-2A]_[T-1A]_H5.2_A5.1_F5.1_T5.2_[T11C]_[A12C] (ssRNA)
RNA: B1 RNA with U28A, G29A, A40C, A41C
B39: Id_ii_S2_P5E.3_K5.2_C5.2_[C-2A]_[T-1A]_H5.2_A5.1_F5.1_T5.2_[T11C] (ssRNA)
RNA: B1 RNA with U28A, G29A, A40C
B40: Id_ii_S2_P5E.3_K5.2_C5.2_[C-2A]_H5.2_A5.1_F5.1_T5.2_[T11G]_[A12C] (ssRNA)
RNA: B1 RNA with U28A, G29U, A40G, A41C
B41: Id_ii_S2_P5E.3_K5.2_C5.2_[C-2A]_H5.2_A5.1_F5.1_T5.2_[T11C]_[A12G] (ssRNA)
RNA: B1 RNA with U28A, G29U, A40C, A41G

Biological target: T1, PUF4 RNA-binding domain
Experiment: Mg; RNA-MaP; 20 mM Na-HEPES pH 7.4, 30 mM KOAc, 0.75 mM MgCl2, 0.1% Tween-20, 5% glycerol, 0.1 mg/mL BSA, 2 mM DTT; 25 C; 0.0125-409.6 nM protein
Conditions: tags: N-His6-TEV cleaved; C-SNAP kept, Cy3B-labelled; label: tethered on chip by stalled RNA polymerase

Binder	Kd [nM]
B1	0.435
B2	0.994
UCUCUUUGUAUUCGUAUCUCUU (ssRNA) [Ib_S1_P5E.1_K5.1_C5.1_H5.1_A5.1_[A7C]_F5.1_[T8G]_T5.1]	19.1
B3	0.297
B4	419
B5	65.6
B6	82.2
B7	179
B8	> 2300
B9	94.7
B10	149
B11	220
B12	80.1
UCUCUUUGUAUUUGUAUCUCUU (ssRNA) [Ib_S1_P5E.1_K5.1_C5.1_H5.1_A5.1_[A7T]_F5.1_[T8G]_T5.1]	10.1
B13	13.9
B14	41.6
B15	19.5
B16	6.8
B17	14.5
B18	9.27
B19	21
B20	22.6
B21	10.7

Binder	Kd [nM]
B22	19.2
UCUCUUUGUAUUGCUAUCUCUU (ssRNA) [Ib_S1_P5E.1_K5.1_C5.1_H5.1_A5.1_[A7G]_F5.1_[T8C]_T5.1]	15.4
B23	219
B24	442
B25	152
B26	66.4
B27	131
B28	374
B29	156
B30	130
B31	98.6
B32	162
UCUCUUUGUAUUCCUAUCUCUU (ssRNA) [Ib_S1_P5E.1_K5.1_C5.1_H5.1_A5.1_[A7C]_F5.1_[T8C]_T5.1]	17.5
B33	102
B34	207
B35	319
B36	174
B37	> 2300
B38	504
B39	672
B40	762
B41	229
